Results as given in paper PMC9756111, “Stabilization of DNA fork junctions by Smc5/6 complexes revealed by single-molecule imaging”.

Legend:
[1] = biological target: Smc5/6 holocomplex (budding yeast) (UniProt Q12749); experiment: single-molecule dual-colour Qdot co-detection (TIRF, DNA curtains); as a1, but buffer exchanged to 250 mM NaCl: Smc5/6 diffusing freely on double-tethered dsDNA (after equilibration on DNA); cluster size by statistical inference, assuming no unlabelled complexes (lower limit)
[2] = biological target: Smc5/6 holocomplex (budding yeast) (UniProt Q12749); experiment: single-molecule dual-colour Qdot co-detection (TIRF, DNA curtains); Smc5/6 labelled with equal amounts of Qdot605 and Qdot705 anti-HA on the same epitope in 50 mM NaCl-Buffer R; puncta counted as they first appear on double-tethered dsDNA curtains (oligomers in solution), and binding at sites of previously bound Smc5/6; cluster size by statistical inference, assuming no unlabelled complexes (lower limit)
[3] = biological target: T1, Smc5/6 holocomplex (Saccharomyces cerevisiae (W303 …, UniProt Q08204;Q12749;Q07913;P38632;Q05541;P43124;Q03718;P40026 …)); experiment: single-molecule capture on DNA curtain (TIRF); Smc5/6 preloaded on lambda dsDNA; 16 nM oligo; 1 mM ATP; mean about 4.0 oligos per punctum; Buffer R (composition not in material); dsDNA binding in 25 mM NaCl + 25 mM KCl, capture in 50 mM NaCl + 1 mM ATP; other steps 50-250 mM NaCl; pH and temperature not given in material; conditions: protein: recombinant; tags: Smc6-3xStrepII; Nse4-His-3HA (Qdot anti-HA label); copies: 1;1;1;1;1;1;1;1; label: Alexa594; single stranded
[4] = biological target: T1, Smc5/6 holocomplex; experiment: single-molecule capture on DNA curtain (TIRF); Smc5/6 preloaded on lambda dsDNA; 1 mM ATP; mean about 3.2 per punctum; Buffer R (composition not in material); dsDNA binding in 25 mM NaCl + 25 mM KCl, capture in 50 mM NaCl + 1 mM ATP; other steps 50-250 mM NaCl; pH and temperature not given in material; conditions: protein: recombinant; tags: Smc6-3xStrepII; Nse4-His-3HA (Qdot anti-HA label); copies: 1;1;1;1;1;1;1;1; label: Alexa594; 3' overhang 9 nt on strand 2

Smc5/6 holocomplex (from UniProt Q12749 1-1114; Q08204 1-1093; Q07913 1-336; P38632 1-267; Q05541 1-303; P43124 1-402; Q03718 1-556)
N, mean cluster size with a truncated Poissonian model (Smc5/6 per punctum) [1]: 3 to 4
fraction of puncta with both colours [1]: 67%
stoichiometry N (Smc5/6 per punctum) [1]: 2 to 3
N, mean cluster size with a truncated Poissonian model (Smc5/6 per punctum) [2]: 2 to 3
fraction of binding events from solution with both colours [2]: 39%
fraction of complexes that oligomerized on DNA (bound to previously bound Smc5/6) [2]: 10%
stoichiometry N (Smc5/6 complexes per punctum) [2]: 2

B1: capture01 ssDNA-Alexa594 (ssDNA)
DNA: ATATATCTGACGCGTGCCTGGAGACTGGGGAGTAATCCTCTTGGCGGTTAAA
modifications: Alexa594 between ...GCGGTT and AAA
binding result [3]: binds

B2: capture01/capture02 dsDNA-Alexa594 (dsDNA)
DNA 1: B1 DNA
DNA 2: TTTAACCGCCAAGAGGATTACTCCCCAGTCTCCAGGCACGCGTCAGATATATACATCCTGT
modifications: Alexa594 between ...GCGGTT and AAA of strand 1
binding result [4]: binds
